The values below come from patent US20200030425.

For assay [1], the target named is hCD16a-F158 (human) (UniProt P08637).
Assay [2] has as its target hCD32a-H131 (human) (UniProt P12318).
Assay [3] concerns the target hCD16a-F158 (human) (UniProt P08637). The source holds these as a separate data set.
The target of assay [4] is hCD32a-H131 (human) (UniProt P12318). The source holds these as a separate data set.

Read-outs that look alike come from different tables or passages of the source.

Chain of hCD16a-F158 (human) (P08637 17-208): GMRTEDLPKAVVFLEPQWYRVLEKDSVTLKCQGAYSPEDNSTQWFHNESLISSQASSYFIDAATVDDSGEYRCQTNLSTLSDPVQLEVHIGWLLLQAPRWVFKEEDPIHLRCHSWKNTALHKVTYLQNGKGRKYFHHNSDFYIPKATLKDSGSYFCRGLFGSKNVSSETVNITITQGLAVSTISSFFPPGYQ
Chain of hCD32a-H131 (human) (P12318 34-217): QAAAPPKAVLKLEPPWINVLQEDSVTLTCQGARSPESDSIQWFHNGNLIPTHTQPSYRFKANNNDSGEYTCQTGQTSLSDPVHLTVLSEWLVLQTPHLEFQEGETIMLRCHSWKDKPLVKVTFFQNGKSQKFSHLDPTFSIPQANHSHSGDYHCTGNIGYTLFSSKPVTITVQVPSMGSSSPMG

The Kd is the free concentration of one partner at which half of the binding sites on the other are occupied at equilibrium, for simple one-to-one binding. A higher Kd goes with lower affinity. On to IgG1f, for which the Kd in assay [1] was 200 µM; in assay [2], 530 µM.

In the case of IgG1f-S267E, the Kd in assay [3] is over 5000 µM; in assay [4] it was 650 µM.
